Assays:
Experiment in all cases: pull-down; GST pull-down; purified GST-HACE1 proteins incubated with purified cyclin C-MBP-His for 6 h at 4°C in 50 mM Tris-Cl, 200 mM NaCl, 1 mM EDTA, 1% NP-40, 1 mM DTT, 10 mM MgCl2, 10 μg/ml BSA, pH 8.0; GST pulled down, cyclin C immunoblotted
Conditions in all cases: both partners purified
[1] = target: T1, GST‐HACE1 truncation, amino acids 258–909 (human, UniProt Q8IYU2 258-909)
T1 sequence (looked up): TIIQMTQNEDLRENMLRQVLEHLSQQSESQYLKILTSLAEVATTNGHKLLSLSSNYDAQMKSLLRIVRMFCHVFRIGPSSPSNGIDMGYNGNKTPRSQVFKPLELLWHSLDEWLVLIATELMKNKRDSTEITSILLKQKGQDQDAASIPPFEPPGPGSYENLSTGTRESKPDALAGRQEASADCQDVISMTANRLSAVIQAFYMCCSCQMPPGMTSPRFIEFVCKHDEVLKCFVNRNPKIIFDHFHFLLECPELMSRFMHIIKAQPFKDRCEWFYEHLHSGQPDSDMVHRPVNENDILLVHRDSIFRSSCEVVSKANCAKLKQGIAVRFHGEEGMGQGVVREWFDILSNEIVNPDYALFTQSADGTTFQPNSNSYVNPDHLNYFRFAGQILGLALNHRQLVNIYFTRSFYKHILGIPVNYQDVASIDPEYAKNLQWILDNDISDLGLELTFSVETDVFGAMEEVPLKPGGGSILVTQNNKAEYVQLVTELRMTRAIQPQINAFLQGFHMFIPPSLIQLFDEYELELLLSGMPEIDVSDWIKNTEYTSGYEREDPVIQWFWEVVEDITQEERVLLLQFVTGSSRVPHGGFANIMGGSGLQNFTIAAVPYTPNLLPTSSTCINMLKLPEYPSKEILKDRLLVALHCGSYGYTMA

GST‐HACE1 = target: T2, GST‐HACE1 (human, UniProt Q8IYU2 1-909)
T2 construct: HACE1, human; the cDNA encoding HACE1 cloned into pGEX4T-1; also called recombinant glutathione (GST)‐tagged HACE1; GST‐fused HACE1
T2 sequence (looked up): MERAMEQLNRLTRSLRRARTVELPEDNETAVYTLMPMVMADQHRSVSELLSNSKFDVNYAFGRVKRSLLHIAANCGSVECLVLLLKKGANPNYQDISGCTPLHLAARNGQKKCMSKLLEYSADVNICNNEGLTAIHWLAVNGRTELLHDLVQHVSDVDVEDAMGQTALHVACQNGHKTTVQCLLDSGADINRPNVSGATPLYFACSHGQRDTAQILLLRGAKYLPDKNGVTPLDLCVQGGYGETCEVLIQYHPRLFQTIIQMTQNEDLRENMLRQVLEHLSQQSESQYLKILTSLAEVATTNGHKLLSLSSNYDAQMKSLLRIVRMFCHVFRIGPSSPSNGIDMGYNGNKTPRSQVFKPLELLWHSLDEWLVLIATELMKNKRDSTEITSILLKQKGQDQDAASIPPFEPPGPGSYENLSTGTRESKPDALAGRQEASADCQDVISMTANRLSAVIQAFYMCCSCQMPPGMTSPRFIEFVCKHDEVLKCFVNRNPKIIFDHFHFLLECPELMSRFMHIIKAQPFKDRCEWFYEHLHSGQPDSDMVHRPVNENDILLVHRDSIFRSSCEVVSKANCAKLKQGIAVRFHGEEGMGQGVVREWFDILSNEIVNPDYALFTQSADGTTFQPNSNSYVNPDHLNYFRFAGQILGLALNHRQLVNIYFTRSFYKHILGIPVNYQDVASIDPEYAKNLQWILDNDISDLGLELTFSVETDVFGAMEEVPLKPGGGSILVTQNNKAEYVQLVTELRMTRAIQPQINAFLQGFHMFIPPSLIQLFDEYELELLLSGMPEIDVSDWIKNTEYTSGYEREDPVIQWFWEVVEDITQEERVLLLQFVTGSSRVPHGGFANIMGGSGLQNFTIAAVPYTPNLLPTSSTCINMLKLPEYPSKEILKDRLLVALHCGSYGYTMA

[2] = target: T3, GST‐HACE1 truncation, amino acids 547–909 (human, UniProt Q8IYU2 547-909)
T3 sequence (looked up): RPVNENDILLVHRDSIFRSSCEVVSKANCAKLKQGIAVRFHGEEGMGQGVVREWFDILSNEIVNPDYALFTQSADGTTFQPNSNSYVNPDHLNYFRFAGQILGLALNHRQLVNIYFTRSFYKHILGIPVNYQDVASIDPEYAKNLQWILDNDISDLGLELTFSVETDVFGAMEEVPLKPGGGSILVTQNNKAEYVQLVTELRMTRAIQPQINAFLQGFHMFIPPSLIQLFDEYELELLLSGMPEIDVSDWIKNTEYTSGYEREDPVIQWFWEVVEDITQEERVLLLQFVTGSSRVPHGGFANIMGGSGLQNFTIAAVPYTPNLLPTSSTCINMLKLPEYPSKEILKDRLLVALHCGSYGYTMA

[3] = target: T4, GST‐HACE1 truncation, amino acids 1–546 (human, UniProt Q8IYU2 1-546)
T4 sequence (looked up): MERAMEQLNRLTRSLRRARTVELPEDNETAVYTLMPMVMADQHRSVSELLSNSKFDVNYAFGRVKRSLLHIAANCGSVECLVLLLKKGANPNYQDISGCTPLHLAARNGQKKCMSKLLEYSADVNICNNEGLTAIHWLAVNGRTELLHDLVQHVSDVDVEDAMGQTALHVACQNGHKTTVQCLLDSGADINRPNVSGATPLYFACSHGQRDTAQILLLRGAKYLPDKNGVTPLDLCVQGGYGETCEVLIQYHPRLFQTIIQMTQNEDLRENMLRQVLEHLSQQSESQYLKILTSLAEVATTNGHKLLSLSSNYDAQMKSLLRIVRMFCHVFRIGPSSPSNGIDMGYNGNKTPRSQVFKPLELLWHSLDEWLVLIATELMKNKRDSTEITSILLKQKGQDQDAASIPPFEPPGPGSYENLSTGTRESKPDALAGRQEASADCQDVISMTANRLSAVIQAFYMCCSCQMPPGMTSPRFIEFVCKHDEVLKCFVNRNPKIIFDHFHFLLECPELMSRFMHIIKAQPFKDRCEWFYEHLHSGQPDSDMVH

Measured: binding result

B1: MBP‐His‐tagged cyclin C (natural protein, human)
chain: MAGNFWQSSHYLQWILDKQDLLKERQKDLKFLSEEEYWKLQIFFTNVIQALGEHLKLRQQVIATATVYFKRFYARYSLKSIDPVLMAPTCVFLASKVEEFGVVSNTRLIAAATSVLKTRFSYAFPKEFPYRMNHILECEFYLLELMDCCLIVYHPYRPLLQYVQDMGQEDMLLPLAWRIVNDTYRTDLCLLYPPFMIALACLHVACVVQQKDARQWFAELSVDMEKILEIIRVILKLYEQWKNFDERKEMATILSKMPKPKPPPNSEGEQGPNGSQNSSYSQS
notes: Cyclin C, human; the cDNA of CCNC cloned into pSJ8 (pET21a derivative, MBP-His fusion vector); also called cyclin C‐MBP‐His; source: Escherichia coli BL21, purified (Ni‐NTA agarose beads)
binds: all assays above
